Data published in PMC7195491, “DIP/Dpr interactions and the evolutionary design of specificity in protein families” (Nature Communications, 2020).

Tests used:
Details in all cases: both partners purified
[1] = biological target: T1, DIP-β (isoformG), extracellular region (Drosophila melanogaster); assay: SPR; Biacore T100, CM4 chip; DIPs and DIP mutants immobilised by amine coupling, Dprs as analytes; 25 °C; 10 mM Tris-HCl pH 7.2, 150 mM NaCl, 1 mM EDTA, 1 mg/mL BSA, 0.01% Tween-20; duplicate responses fit globally to a 1:1 model; Rmax fixed for KDs > 100 μM, lower limit listed for KDs > 300 μM
T1 construct: DIP-β, Drosophila melanogaster, isoform G as printed, extracellular region; source: HEK293F cells, transiently transfected, purified from conditioned media (Ni-IMAC, size-exclusion chromatography)

DIP-α = biological target: T2, DIP-α (Drosophila melanogaster); assay: SPR; Biacore T100, CM4 chip; DIPs and DIP mutants immobilised by amine coupling (760-980 RU), Dprs and Dpr mutants as analytes (three-fold dilution series, up to 81 μM, in some cases up to 27 or 9 μM); 25 °C; 10 mM Tris-HCl pH 7.2, 150 mM NaCl, 1 mM EDTA, 1 mg/mL BSA, 0.01% Tween-20; equilibrium fit, 1:1 model; for KDs > 300 μM a lower limit is listed
T2 construct: DIP-α, Drosophila melanogaster, extracellular region; The PDB entries are cited structures and may hold shorter constructs; also called blue subgroup DIP; source: HEK293F, transiently transfected, purified from conditioned media (Ni IMAC, SEC)

DIP-α A11T = biological target: T3, DIP-α A11T (Drosophila melanogaster); assay: as above
T3 construct: DIP-α, Drosophila melanogaster, extracellular region; the results' sentence speaks of 'Dpr10 positions 10 and 11'; source: HEK293F, transiently transfected, purified from conditioned media (Ni IMAC, SEC)

DIP-α K10Q = biological target: T4, DIP-α K10Q (Drosophila melanogaster); assay: as above
T4 construct: DIP-α, Drosophila melanogaster, extracellular region; source: HEK293F, transiently transfected, purified from conditioned media (Ni IMAC, SEC)

B1: Dpr10 V31K Q29E L10G {V144K Q142E L93G}, extracellular region (domain or fragment)
chain: WNEPYFDLTMPRNITSLVGKSAYLGCRVKHLGNKTVAWIRHRDGHILTVGTYTYTTDQRFQTSYHRDIDEWTLQIKWAQQRDAGVYECQISTEPKRSYSVNLNIVVPTATILGGPDLYVDKGSTINLTCIIKFSPEPPTHIFWYHQDKVLSEETSGGRLKFKTIKSEETKSILLIYDADLLHSGKYSCYPSNTEIASIR
modifications: Limits not printed (ref. 11). Start follows PDB 6NRQ entity 1 (W3 = UniProt 50); end is the end of Ig2 in the entry's features.
Binder B1 has a Kd [1] of over 500 µM.

B2: Dpr10 V31K Q29E L10G (domain or fragment)
chain: WNEPYFDLTMPRNITSLVGKSAYLGCRVKHLGNKTVAWIRHRDGHILTVGTYTYTTDQRFQTSYHRDIDEWTLQIKWAQQRDAGVYECQISTEPKRSYSVNLNIVVPTATILGGPDLYVDKGSTINLTCIIKFSPEPPTHIFWYHQDKVLSEETSGGRLKFKTIKSEETKSILLIYDADLLHSGKYSCYPSNTEIASIR
modifications: Same molecule as Dm6. Limits not printed (ref. 11). Start follows PDB 6NRQ; end is the end of Ig2 in the entry's features.
With B2 the Kd (DIP-α) was over 500 µM.

B3: Dpr10 (domain or fragment)
chain: YQRQSVSNNNHNNAEAKPTHAPPSHYPHGHKWNEPYFDLTMPRNITSLVGKSAYLGCRVKHLGNKTVAWIRHRDLHILTVGTYTYTTDQRFQTSYHRDIDEWTLQIKWAQQRDAGVYECQISTQPVRSYSVNLNIVDLIDAETSDIMQQYYNDDAFYIAENRVYQSSNDEFAGMFGPIQTVAVPTATILGGPDLYVDKGSTINLTCIIKFSPEPPTHIFWYHQDKVLSEETSGGRLKFKTIKSEETKSILLIYDADLLHSGKYSCYPSNTEIASIR
With B3 the Kd (DIP-α) was 1.5 ± 0.1 µM, the “fold increase of KD over wild type” value (DIP-α A11T) was about 10 fold and the “fold increase of KD over wild type” value (DIP-α K10Q) was about 10 fold.
